{
  "source": "paper PMC3496974",
  "about": "(MicrobiologyOpen, 2012)",
  "binders": {"B1": {"name": "PanD, unactivated proenzyme (native, untagged) (enzyme, E. coli, UniProt P0A790 1-126, looked up)", "chain": "MIRTMLQGKLHRVKVTHADLHYEGSCAIDQDFLDAAGILENEAIDIWNVTNGKRFSTYAIAAERGSRIISVNGAAAHCASVGDIVIIASFVTMPDEEARTWRPNVAYFEGDNEMKRTAKAIPVQVA"}},
  "key": {"PanZ(N45A)-His": {"target": "T1, PanZ(N45A)-His (E. coli, UniProt P37613 1-127, N45A)", "T1 sequence": "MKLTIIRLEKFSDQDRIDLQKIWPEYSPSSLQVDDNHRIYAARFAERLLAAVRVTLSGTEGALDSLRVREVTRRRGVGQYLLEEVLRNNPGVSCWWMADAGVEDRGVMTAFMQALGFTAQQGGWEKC", "experiment": "SEC"}, "SEC": {"target": "the molecule itself", "experiment": "SEC"}},
  "data": [
    {"binder": "B1", "values": [
      {"measurement": "binding result", "setting": "PanZ(N45A)-His", "value": "binds"},
      {"measurement": "stoichiometry N", "setting": "SEC", "value": 4}
    ]}
  ]
}
